The source of these data is article PMC2652392, “The Structural Basis of Gas-Responsive Transcription by the Human Nuclear Hormone Receptor REV-ERBβ” (PLoS Biology, 2009).

In general, Kd refers to the equilibrium constant for the complex coming apart.

Experiment [1] addresses T1, REV-ERBβ ligand-binding domain (human, UniProt Q14995 212-579).
T1 chain: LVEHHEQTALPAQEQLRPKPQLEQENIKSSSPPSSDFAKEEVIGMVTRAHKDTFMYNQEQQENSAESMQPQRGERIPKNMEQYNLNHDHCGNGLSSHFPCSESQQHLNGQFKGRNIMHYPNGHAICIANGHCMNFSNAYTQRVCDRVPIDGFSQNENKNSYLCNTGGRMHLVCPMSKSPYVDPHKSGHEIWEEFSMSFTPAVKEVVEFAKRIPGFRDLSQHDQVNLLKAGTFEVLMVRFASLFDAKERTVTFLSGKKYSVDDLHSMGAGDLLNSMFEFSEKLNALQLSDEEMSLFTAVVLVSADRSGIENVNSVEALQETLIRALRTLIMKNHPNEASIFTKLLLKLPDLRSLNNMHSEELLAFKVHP
Put plainly: FP; no heme, control.

In experiment [2] the target is T2, REV-ERBα ligand-binding domain (residues 274–614 with an internal deletion of residues 324–422) (human, UniProt P20393 274-614, internal deletion of residues 324–422).
T2 sequence: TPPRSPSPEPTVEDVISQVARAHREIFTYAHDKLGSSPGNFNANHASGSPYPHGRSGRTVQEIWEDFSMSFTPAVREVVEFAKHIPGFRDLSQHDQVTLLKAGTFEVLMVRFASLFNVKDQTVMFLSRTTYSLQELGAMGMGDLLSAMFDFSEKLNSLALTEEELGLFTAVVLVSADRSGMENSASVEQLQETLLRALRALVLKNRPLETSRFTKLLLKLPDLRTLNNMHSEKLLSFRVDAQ
The experiment can be described thus: FP; no heme, control.

The target in experiment [3] is T1, REV-ERBβ ligand-binding domain. Put plainly: FP; no heme, + SNAP (NO donor).
Experiment [4] addresses T2, REV-ERBα ligand-binding domain …. Put plainly: FP; no heme, + SNAP (NO donor).
Experiment [5] addresses T3, REV-ERBα ligand-binding domain (residues 274–614 with an internal deletion of residues 324–422) (human, UniProt P20393 274-614, internal deletion of residues 324–422).
T3 construct: REV-ERBα, human, GenBank CAB53540, residues 274–614 with an internal deletion of residues 324–422; heme is a non-covalent ligand; Modified pET28a vector; also called REV-ERBα LBD; source: E. coli BL21-Gold(DE3) pLysS, with or without hemin in the medium, purified (Ni-NTA)
T3 sequence (looked up): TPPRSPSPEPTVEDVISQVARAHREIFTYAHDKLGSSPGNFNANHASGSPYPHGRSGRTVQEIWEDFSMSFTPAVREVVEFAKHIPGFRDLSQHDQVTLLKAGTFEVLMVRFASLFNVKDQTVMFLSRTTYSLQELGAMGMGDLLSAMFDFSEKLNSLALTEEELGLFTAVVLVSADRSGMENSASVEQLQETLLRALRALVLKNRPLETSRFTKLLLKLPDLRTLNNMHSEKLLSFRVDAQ
The experiment can be described thus: fluorescence polarisation; 110 nM N-terminally fluorescein-labelled NCOR peptide with a dilution series of LBD; 100 mM Tris pH 8.2, 150 mM NaCl; apo or heme-bound LBD, with or without the NO donor SNAP (1,200 μM); 384-well plates. The conditions noted are these: both partners purified. A general note: Polarisation of emitted light reports the rotation of a fluorescent probe.

The target in experiment [6] is T1, REV-ERBβ ligand-binding domain. Put plainly: FP; heme-bound, control.
Experiment [7] deals with T2, REV-ERBα ligand-binding domain …. The experiment can be described thus: FP; heme-bound, control.
The target in experiment [8] is T1, REV-ERBβ ligand-binding domain. The experiment can be described thus: FP; heme-bound, + SNAP (NO donor).
The target of experiment [9] is T2, REV-ERBα ligand-binding domain …. Put plainly: FP; heme-bound, + SNAP (NO donor).

No end group written: not given here.

B1: NCOR interaction domain I (IDI) peptide (peptide)
peptide: fluorescein-DPASNLGLEDIIRKALMGSF
notes: also called NCOR peptide; Nuclear Receptor Co-repressor peptide
For B1, the Kd turned out to be 16.8 µM in experiment [1]; 4.1 µM in experiment [2]; 20.4 µM in experiment [3]; 3.7 µM in experiment [4]; 193 µM in [6]; 51.1 µM in [7]. The values for the Kd in experiment [8] and in [9] were 99.7 µM and 2.9 µM, respectively. In experiment [5], the binding result is reported as “binds”.
